The values that follow come from publication PMC6899989.

For orientation: stoichiometry N means a count of units in the complex or per binding partner.

Assay [1] addresses N-terminal His6-tagged RpPpsR2 (gene repressor from Rhodopseudomonas palustris) (Rhodopseudomonas palustris). Briefly: SEC; RpPpsR2 in 5 mM DTT. (Size exclusion chromatography separates by hydrodynamic size, large species first.)
Assay [2] addresses RpBphP1, sample used for size exclusion chromatography (synthesised gene) (Rhodopseudomonas palustris). Briefly: SEC; Superose 12 10/300 GL, 200 μL at 1-4 mg/mL, 5 mM TrisHCl pH 8, 10 mM NaCl; after illumination with 760 nm light for 5 min (Pr state).
Assay [3] shares this target. Briefly: SEC; Superose 12 10/300 GL, 200 μL at 1-4 mg/mL, 5 mM TrisHCl pH 8, 10 mM NaCl; in the dark (Pfr state).
The target in assay [4] is full-length RpBphP1, SAXS sample (gene PCR amplified from Rps. palustris strain 2.1.6, in pET28a) (Rhodopseudomonas palustris). Briefly: SAXS; 5 mM Tris pH 8, 1 and 4 mg/mL, 8 °C; continuous illumination with 760 nm light (Pr state); mass by SAXS MoW2, ab-initio envelopes.
Assay [5] has the same target. Briefly: SAXS; 5 mM Tris pH 8, 1 and 4 mg/mL, 8 °C; dark-purified protein measured in darkness (Pfr state); mass by SAXS MoW2, ab-initio envelopes.
Assay [6] deals with N-terminal His6-tagged RpPpsR2 (gene repressor from Rhodopseudomonas palustris) (Rhodopseudomonas palustris). Briefly: pull-down; Ni(II)-affinity chromatography on 1 mL His-Trap HP; His6-RpPpsR2 mixed 1:4 with untagged RpBphP1 or RpBphP1ΔHOS; illuminated for 5 min with 760 nm light (Pr state); imidazole elution monitored at 280 and 400 nm; SDS/PAGE scan of peak BP.

As to “N-terminal His6-tagged RpPpsR2 (gene repressor from Rhodopseudomonas palustris) (natural protein)”, the stoichiometry N in assay [1] came to 2.

Take “RpBphP1, sample used for size exclusion chromatography (synthesised gene) (natural protein)”: the stoichiometry N in assay [2] and in assay [3] was 2 in each case. Take “full-length RpBphP1, SAXS sample (gene PCR amplified from Rps. palustris strain 2.1.6, in pET28a) (natural protein)”: the stoichiometry N in assay [4] and in assay [5] was 2 throughout. As for “untagged full-length RpBphP1 (bacteriophytochrome from Rhodopseudomonas palustris) (natural protein)”, the stoichiometry N (RpBphP1 per RpPpsR2) in assay [6] was 2.
